The source of these data is PMC3025356, “Mechanism of the Ca^2+-Dependent Interaction between S100A4 and Tail Fragments of Nonmuscle Myosin Heavy Chain IIA” (Journal of Molecular Biology, 2011).

This data set has as its system M200 filaments. Kind of data set: Stopped-flow turbidity, dissociation of M200 filaments on NaCl jump or dilution. Type of data set: biochemical, human. As to the method: Fig. 9 Dissociation of M200 filaments by S100A4. (a) Initially, M200 was added (i) from a concentrated stock in 0.5 M NaCl to give a final concentration of 5 μM M200 (with respect to the polypeptide chain) in 100 mM NaCl, 10 mM Hepes, and 0.1 mM Ca^2+ at pH 7.5 and 20 °C. A biphasic rise in turbidity was recorded for 200 s (continuous line). Then 10 μM S100A4 (with respect to monomer concentration) was added (ii), followed by 0.2 mM EGTA (iii) and 1 mM Ca^2+ (iv). […] (b) M200 was diluted (i) into 100 mM NaCl to form filaments as in (a), then 5 μM S100A4 was added (ii), causing a 54% drop in turbidity. A further 5 μM S100A4 (iii) caused turbidity to fall to almost zero. (c) Stopped-flow records monitoring the dissociation of 5 μM M200 filaments on jumping [NaCl] from 100 mM to 120 mM NaCl. Other components of the buffer were 20 mM Hepes, 1 mM Mg^2+, and 100 μM Ca^2+ at pH 7.5 and 20 °C. […] In the presence of 20 μM S100A4 (lower trace), the turbidity decreased by 87% with a rate constant of 0.2 s^− 1.
It is of interest to know whether S100A4 drives depolymerisation solely by binding to free M monomer and allowing the polymer equilibrium to readjust (i.e., via k− 4 and k5), or whether S100A4 also binds to the filament bundle and actively depolymerises an M200 unit (via k6 and k− 7). […] In an attempt to address this question, the dissociation rate of the M200 filament was followed on jumping the NaCl concentration from 100 mM to 120 mM in the absence and in the presence of S100A4 (Fig. 9c). Under these conditions in the absence of S100A4, turbidity dropped to about 50% of its initial value with a profile fitted to a double exponential (k1obs = 0.33 s^− 1 with 12% amplitude and k2obs = 0.037 s^− 1 with 43% amplitude, relative to the total amplitude expected for a full dissociation). Therefore, at the end point of this reaction, the filament concentration decreased by about 2-fold (turbidity is proportional to concentration over this range; Fig. S5b). There should also be a corresponding rise in M200 monomer concentration, but this may be less than accounted for by the loss of filaments if the drop in turbidity was also associated with a rise in small M200 oligomers with a lower specific turbidity. […]

B1: M200: His-tagged human NM-MHC IIA residues Q1761-E1960, V1913I substitution (protein, UniProt P35579 1761-1960, looked up, variant V1913I)
chain: QINTDLNLERSHAQKNENARQQLERQNKELKVKLQEMEGTVKSKYKASITALEAKIAQLEEQLDNETKERQAACKQVRRTEKKLKDVLLQVDDERRNAEQYKDQADKASTRLKQLKRQLEEAEEEAQRANASRRKLQRELEDATETADAMNREISSLKNKLRRGDLPFVVPRRMARKGAGDGSDEEVDGKADGAEAKPAE
modifications: His tag
notes: His-tagged human NM-MHC IIA residues Q1761-E1960, V1913I substitution
Turning to B1, the “turbidity change on dilution relative to that with S100A4” value (2-fold dilution at 100 mM NaCl, no S100A4) was found to be 10%. Where the note is “NaCl jump 100 to 120 mM”, the “fast rate constant, no S100A4” value was 0.33 s^− 1 and the “slow rate constant, no S100A4” value came to 0.037 s^− 1. The “turbidity of initial value after NaCl jump” value (NaCl jump, no S100A4) was “about 50%”.
